Test results published in the DeepSol protein solubility set.

Experiment: soluble on expression in E. coli; label from the status in PepcDB or PDB records

Soluble on expression in E. coli, soluble:
MGSDKIHHHHHHENLYFQGMQLLKELCSIHAPSGNEEPLKDFILEYIRSNAGSWSYQPVIYADNDLQDCIVLVFGNPRTAVFAHMDSIGFTVSYNNHLHPIGSPSAKEGYRLVGKDSNGDIEGVLKIVDEEWMLETDRLIDRGTEVTFKPDFREEGDFILTPYLDDRLGVWTALELAKTLEHGIIAFTCWEEHGGGSVAYLARWIYETFHVKQSLICDITWVTEGVEAGKGVAISMRDRMIPRKKYVNRIIELARQTDIPFQLEVEGAGASDGRELQLSPYPWDWCFIGAPEKDAHTPNECVHKKDIESMVGLYKYLMEKL, MHHHHHHENLYFQGSTSENITQKVVWVEESDKRSFLLDLLNATGKDSLTLVFVETKKGADSLEDFLYHEGYACTSIHGDRSQRDREEALHQFRSGKSPILVATAVAARGLDISNVKHVINFDLPSDIEEYVHRIGRTGRVGNLGLATSFFNERNINITKDLLDLLVEAKQEVPSWLENMAYEHHY, SAFVAALSAAGLPTDAFVFEGFLPTRGKRRLEKLANLKGEQRVVIFYEAPGRLQAALADMREVLGDRHVVVARELTKIHEEFVRGRVSFVAEHFAAVDVKGEVVILVAPAPAP, MNSLLRLSHLAGPAHYRALHSSSSIWSKVAISKFEPKSYLPYEKLSQTVKIVKDRLKRPLTLSEKILYGHLDQPKTQDIERGVSYLRLRPDRVAMQDATAQMAMLQFISSGLPKTAVPSTIHCDHLIEAQKGGAQDLARAKDLNKEVFNFLATAGSKYGVGFWKPGSGIIHQIILENYAFPGLLLIGTDSHTPNGGGLGGLCIGVGGADAVDVMADIPWELKCPKVIGIKLTGKLNGWTSAKDVILKVADILTVKGGTGAIVEYFGPGVDSISATGMGTICNMGAEIGATTSVFPYNESMYKYLEATGRKEIAEEARKYKDLLTADDGANYDQIIEINLDTLTPHVNGPFTPDLASSIDKLGENAKKNGWPLDVKVSLIGSCTNSSYEDMTRAASIAKQALDKGLKAKTIFTITPGSEQVRATIERDGLSKIFADFGGMVLANACGPCIGQWDRQDVKKGEKNTIVTSYNRNFTGRNDANPATHGFVTSPDITTAMAISGRLDFNPLTDELTAADGSKFKLQAPTGLDLPPKGYDPGEDTFQAPSGSGQVDVSPSSDRLQLLSPFDKWDGKDLEDMKILIKVTGKCTTDHISAAGPWLKYRGHLDNISNNLFLTAINADNGEMNKVKNQVTGEYGAVPATARKYKADGVRWVAIGDENYGEGSSREHAALEPRHLGGRAIIVKSFARIHETNLKKQGMLPLTFANPADYDKIDPSDNVSIVGLSSFAPGKPLTAIFKKTNGSKVEVTLNHTFNEQQIEWFKAGSALNRMKEVFAKSK, MDDQGCPRCKTTKYRNPSLKLMVNVCGHTLCESCVDLLFVRGAGNCPECGTPLRKSNFRVQLFEDPTVDKEVEIRKKVLKIYNKREEDFPSLREYNDFLEEVEEIVFNLTNNVDLDNTKKKMEIYQKENKDVIQKNKLKLTREQEELEEALEVERQENEQRRLFIQKEEQLQQILKRKNKQAFLDELESSDLPVALLLAQHKDRSTQLEMQLEKPKPVKPVTFSTGIKMGQHISLAPIHKLEEALYEYQPLQIETYGPHVPELEMLGRLGYLNHVRAASPQDLAGGYTSSLACHRALQDAFSGLFWQPS, MANMKENEKVIMEKGIHTDFKENMTYGEYLQLDSLLSSQKRLSDHHDEMLFIVIHQASELWMKLILHELNAAIEFIKQDKLQPAFKMLARVSKIQSQIIQSWDILATLTPSEYIEFRDSLGQASGFQSYQYRMIEYALGYKTPHALKIYEKDPELHARLHKALHAPSLYDVAIQALVKEGFPIHKDVLNRDITQPYEEDATVEAAWLEVYADVKKYWNLYQLAEKLIDIEDWLQQWRFRHMKTVERIIGHKMGTGGSSGVSYLKRVLDQQFFPELWNVRTKLMAGDPNSLEHHHHHH, GHMSRRYWQLDVFAERPLTGNGLAVFDDASALDDAAMQAWTRELRQFESIFLLPGDDPRAFRARIFTLEEELPFAGHPLLGAAALLHHLRGGDNEQHWTLHLASKSVALRSVRAGSGFYAEMDQGRAEFGATPDAGTCRWFAEAFSLSANDLSGHPPRVVSTGLPYLLLPVTAEALGRARQVNDLQEALDKLGAAFVYLLDVDGREGRTWDNLGLVEDVATGSAAGPVAAYLVEYGLAARGEPFVLHQGRFLERPSRLDVQVATDGSVRVGGHVQLLARAELLTSAGS, MASEMKFAWLLAPDTYWDEKKTFITAALESGIDHIVDTADSGRIKKLGNLTLISPDEDADIVLVGRDGEGDGTLELPETLEYSRDIEMASELSESGRQVAAYVEIRSKAHEELARRLGRVVDYLILVGEDWKIIPLENIIADLQEEDVKLIAAVADVDEARVALETLEHGTDGVLIEPADISQIKDIAALLENIESETYELKPATITRIEPIGSGDRVCVDTCSIMGIGEGMLVGSYSQGLFLVHSESLESEYVASRPFRVNAGPVQAYVMVPGGRTRYLSELETGDEVIIVDRDGRSRSAIVGRVKIEKRPLMLVEAEYEGMKVRTLLQNAETIRLVNDKGEPVSVSELGEGDRVLVYFDESARHFGMAIKETIIEKLEHHHHHH, EVYALEESRDVYLSDLDWLNATHGDDTKSKIVQKNHPFTPGNNNQSTKISLKMEDGSISEFEKGLGTIAGSPSTITYDISGAGVTKFFSYLGIDRSANPINEQYAKVDKIEVVVDGKVIYSTINQFPNGLTYETPAIKVDLNIPENAKRLQLKSYAGEKTWGDEVVYADAKFTAKGDFVN, SSEQTLEYFLNKGTIRRKDAADIEWYHAANSKSKLMEALRGSAQMIEADVLLRGADPEEPIMAHPPAKDSDITLQDWLKEVVKTDKGIKLDFKSLAAVSQSMSLLEEIRDQLKGPVWINADILPGPGGTATPVDPHVFLQEVAQRSENDVLSLGWTTGWTANVDNPGYSWEMVHQMEELCRPLKQPVTFPVRASLLPMSFPQFQWLLEQSDRSEILH

Soluble on expression in E. coli, not soluble:
MGSDKIHHHHHHMIKHIFCDLDGTLYENGTITKEDIVAIEEIEKKGVQFNVATGRIFKQAHNIIKDSLDMNGYYVCENGSFIYDKDYNVIFKRTIDDNLVKKVIDRFESSDAQLYFKYKGDVIVGSDTTAFRHYSSDFIVDPDFEKRSSFDNLIGNIGVCSENLEELSRIELYLKSEFSEVLEIYFSGTYTLNIVPKSVSKRGSIEHVIKTLNVSPDEVATIGDSPNDICMLEGFKYSFAMSKAREDVKQSANYVVDSVKSAIDVIMEINS, MAHHHHHHMNIPNPRVFLDIAIGGRNAGRMIFELFMDKLPITCENFRCLCTGETGLGYYLKPRWYKNSPIHRIVTDFMFQGGDFNFGNGYGGESIYGQYFRNEKFIYKHSKRGILSMCQTRIKHTNNSQFFVTFKSCPWLDKRHVVLGHLEYGFDTLSFIEEQGTLIGKPKKQVFIYNCGVIPLDKIKYKSADNSDDDYIIPDIEKPLLEKDISINENSDFNELRNMYKYNKHF, MAAPASSATLPSVLQLTANTSAGGKRPSRAVTMPALKQAAKAAAAAPSPSPSFHVFADLPDHLLCSPDNSVWVYAQHTLSFLTSEAAAQAKLGRKVQRMMREAQRQYDISCAFFHSMSSDEQMAEVLRVGSGGGALSLPPAMTAATGTPAKSDRKRLTGVHRALRDAWPTWRGPNMSDAANSLTAREVGGAGESESSENRYSAGLRVNIVLDIVASRKTLRTVPLRSRPYRLAEYLYQLVMQPSATQRATAAPALGDMASHVRSLIIGISDADTTLVGCHIVCPYRHLTSPTPMMMRLRRAIEGAADQERARALAAAEAANTTVSGLDTQWQASSAAAAAEAAASDAAPSPLRSLVASHLAHYRRVDALFPAPYVRVPPQSLEQIDQNRLILCTPGKLLDG, MDLVKVDDDVVREMEIRRQQHSKKYDRKFEELVKSMSEAHVEPEKMKIPFSRKPTEQETNNLREEWEKEYAALCTSGRTLARPNPNSSIFSKILAQGSPSSAKAGTTRSTPRTSKPPSADENIIFGQKLPETPAPKLLCPPRASPGSSRRLSIFVENLPENHAEIVRGTIFAGREAKIMQNDPENVPSTSTYGEPIRPYLLFARYISLEKGLLDDKNRYKSATDPRFREFLKENIKYKVKQSIKHRTSSEACAQILNYFKTLLQKQEVQVLGGYAPVLQLKTNKDIEYASLCIVHNYVILAERDESLIPLISSHITRLSVFYGYIEQVFCIILLSRSALLRQHPEECMVKFLATSMNPSSPDAIKKWSRQKAHIILFCSVFTKNAYCFSKGFKLKLTDEILWKYVDASTAHILEIPRGSFILWQLITTCKPRLQVDKERWIQLLLNIKFKIIPELDLDSFDGDEAMLMQLKQTIDELLHP, MTTHEKVILVGVETEKNYQTFSASMEELANLTETANGEVVFVLTQKRPQVDRQTVIGKGKLEELIQLTDAYEADLVIFNHELTPRQNQLLSEALAVRVIDRVQLILDIFALRARSKEGKLQVELAQLDYLLPRLAGQGKQLSRLGGGIGTRGPGETKLESDRRHIRNKILGIRRELKEVTAHRERSRQKRQNSELFQIGLIGYTNAGKSTILNMLTTAGTYSEDQLFATLDPLTKKWQLPQGMEVTLTDTVGFIQDLPTQLIEAFQSTLEESRTMDLLLHVVDASAPDRLQHERTVQTLMKELALENIPCLTVYNKRDQVDSKEFVPTLFPNVLISTKISEDKERLVQAIRAQMMELLEPYQLEISPTDGQLLSELRRMTLMISEEYAENENRYIVKGFAKKKSKWLAESEKEAAALEHHHHHH, MFSSIGWPEIFTVLILGLIIIGPERLPKVIEDVRAAIYAAKKAINNAKEELNGNLGAEFDEFREPINKIASIQRMGPKAVLTKALFDEDENFMDNFDPKKIMASGTEGEAYRERGINPQPAGDSASPQTPSNKESQPKAGFSWDDIT, MGSDKIHHHHHHARIVYLNHCYPSPKVITYTDNDTIKLGNYEIKQTGWEWGDGSLLKEKCPDYAYDQTDDGSEYPFDSVRVGFITLSVTKVKDDTTSLDLTSLAFEMGTNGDQYDMELFFALNPTLEALEIKLNAGEDVSFVIPYIMDEQQVSKKDWSRVDKMKLYMVLQYYPQKIRLCCN, MTEPLTETPELSAKYAWFFDLDGTLAEIKPHPDQVVVPDNILQGLQLLATASDGALALISGRSMVELDALAKPYRFPLAGVHGAERRDINGKTHIVHLPDAIARDISVQLHTVIAQYPGAELEAKGMAFALHYRQAPQHEDALMTLAQRITQIWPQMALQQGKCVVEIKPRGTSKGEAIAAFMQEAPFIGRTPVFLGDDLTDESGFAVVNRLGGMSVKIGTGATQASWRLAGVPDVWSWLEMITTALQQKRENNRSDDYESFSRSILEHHHHHH, MTEPKPRARRSGAAPARTRDDQVVDRRRSLLKAAVKVISKRGLTGVTINSIAAEAKCSYGVVAFHFQSKEGIIFAALDHTAAEYEAYLAQLNASQRGPAERIRHMIDTDFSRKAAGHESIALWLAFWAEAARVPSFRQRCAALRVQYNEAVAADVAELAALRGRTVEAEQVALTLNAMISGLWVENLLLPITIAEGQKRGHDASLAYLRLIFPDDF, MSLKKILIIVPDGGMLFESAGIADILMQANRLHPEGAREICYQVKLATTQPHQVIHGQSGLNLLADHRLHEIDPREPLDTIMITGRGQNPQEGMAVVDWLRLAAPHARRIVSICGGAMLLAQTGLLDGRRATTHWKLLETMQAEFPQIRVEGGPLYIQDEHIWTSGGVSSGFDLTLALVEEDYGEGHHHHHH, MALMNILPFARFLLDQAVNEGDIAVDATVGNGHDTVYLAERVGDFGHVFGFDIQPEAITAASARLAEHGLCGRATLFERSHSELLEALPADVHGRIAGAVFNLGYLPGGNKQIVTQPESTIEAVRQLLSVMKPGGVIVLVVYHGHPEGKRERDALLDYVRSLDQRRVHALKYEFINRQNNPPFLIALENRADGGA
